Data taken from paper PMC11063129.

Target: T1, Twinkle (mitochondrial DNA helicase) (human, UniProt Q96RR1 43-684, del1-42)
T1 sequence: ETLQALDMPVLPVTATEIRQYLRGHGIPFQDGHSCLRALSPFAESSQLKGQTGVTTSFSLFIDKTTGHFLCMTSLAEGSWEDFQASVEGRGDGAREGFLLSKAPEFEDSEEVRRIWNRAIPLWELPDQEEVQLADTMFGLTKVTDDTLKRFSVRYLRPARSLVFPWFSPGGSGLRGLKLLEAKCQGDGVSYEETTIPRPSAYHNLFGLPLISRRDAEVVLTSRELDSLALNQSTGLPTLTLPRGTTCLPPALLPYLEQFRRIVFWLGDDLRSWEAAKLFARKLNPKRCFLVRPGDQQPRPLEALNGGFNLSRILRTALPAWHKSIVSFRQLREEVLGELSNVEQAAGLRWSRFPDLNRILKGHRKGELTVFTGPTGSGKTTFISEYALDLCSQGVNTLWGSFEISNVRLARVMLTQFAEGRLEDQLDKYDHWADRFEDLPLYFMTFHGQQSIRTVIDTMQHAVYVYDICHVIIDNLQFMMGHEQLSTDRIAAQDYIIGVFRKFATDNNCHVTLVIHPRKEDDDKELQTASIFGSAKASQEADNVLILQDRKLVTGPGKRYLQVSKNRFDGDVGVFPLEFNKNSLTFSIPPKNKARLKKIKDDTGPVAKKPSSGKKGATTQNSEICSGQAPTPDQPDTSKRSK
Assay: FAM fluorescence quenching titration

B1: BHQ1-dT22 (ssDNA)
DNA: TTTTTTTTTTTTTTTTTTTTTT
For B1, the Kd was 27.7 ± 3.8 nM.
